Assay results from patent US20090083877A1, “Transcription Factors, DNA and Methods for Introduction of Value-Added Seed Traits and Stress Tolerance” (priority 2002, published 2009).
“Also recorded” adds a separate entry of the source.

B1: ABF3: Arabidopsis ABI5-like ABA-Response Element-Binding Factor, bZIP, At4g34000 (protein)
chain: MGSRLNFKSFVDGVSEQQPTVGTSLPLTRQNSVFSLTFDEFQNSWGGGIGKDFGSMNMDELLKNIWTAEESHSMMGNNTSYTNISNGNSGNTVINGGGNNIGGLAVGVGGESGGFFTGGSLQRQGSLTLPRTISQKRVDDVWKELMKEDDIGNGVVNGGTSGIPQRQQTLGEMTLEEFLVRAGVVREEPQPVESVTNFNGGFYGFGSNGGLGTASNGFVANQPQDLSGNGVAVRQDLLTAQTQPLQMQQPQMVQQPQMVQQPQQLIQTQERPFPKQTTIAFSNTVDVVNRSQPATQCQEVKPSILGIHNHPMNNNLLQAVDFKTGVTVAAVSPGSQMSPDLTPKSALDASLSPVPYMFGRVRKTGAVLEKVIERRQKRMIKNRESAARSRARKQAYTMELEAEIAQLKELNEELQKKQVEIMEKQKNQLLEPLRQPWGMGCKRQCLRRTLTGPW
B2: ABF4: Arabidopsis ABI5-like ABA-Response Element-Binding Factor, bZIP, At3g19290 (protein, listed as Arabidopsis thaliana)
chain: MGTHINFNNLGGGGHPGGEGSSNQMKPTGSVMPLARQSSVYSLTFDELQNTLGGPGKDFGSMNMDELLKSIWTAEEAQAMAMTSAPAATAVAQPGAGIPPPGGNLQRQGSLTLPRTISQKTVDEVWKCLITKDGNMEGSSGGGGESNVPPGRQQTLGEMTLEEFLFRAGVVREDNCVQQMGQVNGNNNNGFYGNSTAAGGLGFGFGQPNQNSITFNGTNDSMILNQPPGLGLKMGGTMQQQQQQQQLLQQQQQQMQQLNQPHPQQRLPQTIFPKQANVAFSAPVNITNKGFAGAANNSINNNNGLASYGGTGVTVAATSPGTSSAENNSLSPVPYVLNRGRRSNTGLEKVIERRQRRMIKNRESAARSRARKQAYTLELEAEIEKLKKTNQELQKKQAEMVEMQKNELKETSKRPWGSKRQCLRRTLTGPW
B3: ABF2: Arabidopsis ABI5-like ABA-Response Element-Binding Factor, bZIP, At1g45249 (protein, listed as Arabidopsis thaliana)
chain: MDGSMNLGNEPPGDGGGGGGLTRQGSIYSLTFDEFQSSVGKDFGSMNMDELLKNIWSAEETQAMASGVVPVLGGGQEGLQLQRQGSLTLPRTLSQKTVDQVWKDLSKVGSSGVGGSNLSQVAQAQSQSQSQRQQTLGEVTLEEFLVRAGVVREEAQVAARAQIAENNKGGYFGNDANTGFSVEFQQPSPRVVAAGVMGNLGAETANSLQVQGSSLPLNVNGARTTYQQSQQQQPIMPKQPGFGYGTQMGQLNSPGIRGGGLVGLGDQSLTNNVGFVQGASAAIPGALGVGAVSPVTPLSSEGIGKSNGDSSSLSPSPYMFNGGVRGRKSGTVEKVVERRQRRMIKNRESAARSRARKQAYTVELEAEVAKLKEENDELQRKQARIMEMQKNQETEMRNLLQGGPKKKLRRTESGPW

What was measured:
[1] = test system: ABA-inducible wheat Em promoter; assay: Em-GUS reporter transactivation in transiently transformed rice protoplasts; type: cell-based, Oryza sativa; conditions: for Transactivation of Em-GUS expression by overexpressed effector: effector overexpressed alone, average of four replicate transformations
Method: Embryonic rice (Oryza sativa) callus cultures (Radon 6 from the International Rice Research Institute, Los Bafios, Phillipines) were obtained. Embryonic rice callus cultures were grown as suspensions in liquid culture as well as on phytagel plates containing MS medium supplemented with 2.0 mg/L 2,4-D. Cultures were propagated and digested for making protoplasts as previously described except that 10 mM HEPES (Sigma, St. Louis, Mo., USA), pH 5.6, was substituted for phosphate in the Krens'F medium, and 2% (weight/volume; w/v) cellulase YC, 0.35% (w/v) macerozyme, and 0.1% (w/v) pectolyase Y23 were used for overnight digestion (Karlan Research Products, Santa Rosa, CA, USA). Protoplasts were transformed with various mixtures of DNA reporter and effector constructs using polyethylene glycol precipitation. Transformed protoplasts were incubated with or without 100 μM ABA for 16 h in the dark in Krens solution before quantifying β-glucuronidase (GUS) and luciferase (LUC) reporter enzyme activities as previously described. ABA was dissolved and stored in absolute ethanol at −20° C. as a 0.1 M stock solution. Prior to use, required dilutions of ABA were made in Krens solution, and control samples received the same volume of solvent as in ABA treatments.
(§1) Plasmid pBM207 contains the wheat (Triticum aestivum) Early Methionine-labeled (Em) promoter driving the expression of GUS, encoded by uida from Escherichia coli. Plasmid pDH359 contains ABI5 cDNA driven by Ubiquitin promoter. Plasmid pCR349.13S contains the 35S promoter driving the VP1 sense cDNA. Plasmid pDirect2.6 contains the Ubi promoter in a reverse orientation and was used as control construct to balance the total amount of input plasmid DNA between various treatments. Plasmid pAHC 18 contains the Ubi promoter driving firefly (Photinus pyralis) LUC cDNA and was included in transformations to provide an internal reference for non-ABA-inducible transient transcription in reporter enzyme assays. ABF1-ABF4, AREB3, and DPBF4 were amplified by PCR using gene-specific primers from an Arabidopsis cDNA library (Minet et al. Plant J. 2:417 (1992)) and were cloned into plasmid pDH349 (Gampala et al. J. Biol. Chem. 277: 1689 (2002)) containing the maize Ubiquitin promoter and nopaline synthase 3′ termination signals.
Simultaneously, it has been shown that ABF2, ABF3 and ABF4 overexpression in transgenic Arabidopsis results in ABA hypersensitivity and other ABA-associated phenotypes such as altered ABA-inducible gene expression and glucose signaling, reduced transpiration, and enhanced drought tolerance. The functional roles of the ABI5-like family members ABF1-ABF4 in regulation of ABA-inducible gene expression in rice protoplasts were tested and the results are shown in FIG. 1. […] Protoplasts were transformed with Em-GUS and a “dummy” effector construct (pD2.6 containing only the Ubiquitin promoter used to drive effector expression) or co-transformed with a Ubi-ABF construct and treated with or without 100 μM ABA. The values shown in FIG. 1A are the average (±S.E.M.) of four replicate transformations.
Rice protoplasts were transformed with either Em-GUS alone or in pairwise combinations of Ubi-ABF3, Ubi-ABI5, or 35S-VP1. The values in FIG. 1B are the average (±S.E.M.) of four replicate transformations. ABF3 is a related member of the ABI5-family of bZIP transcription factors.

[2] = test system: ABA-inducible wheat Em promoter; assay: Em-GUS reporter transactivation in transiently transformed maize mesophyll protoplasts; type: cell-based; conditions: for Transactivation of Em-GUS expression by overexpressed effector: maize mesophyll protoplasts, effector overexpressed alone
Method: Plant Materials. Maize mesophyll protoplasts were isolated from 20-hr illuminated leaves of 10 day old maize seedlings that had been kept in the dark at 25° C. The middle part of the second leaves (about 6 cm in length) was cut into 0.5 mm strips with a razor blade and digested in an enzyme solution containing 1% (w/v) cellulose RS, 0.1% (w/v) macerozyme R10 (Yakult Honsha, Nishinomiya, Japan), 0.6 M mannitol, 10 mM MES (pH 5.7), 1 mM CaCl2, 1 mM MgCl2, 10 mM β-mercaptoethanol, and 0.1% BSA (w/v) for 3 hr at room temperature. Protoplasts were released by shaking on a rotary shaker at 80 rpm for 10 min and were filtered through a 70 μm nylon filter. Protoplasts were collected by centrifugation at 100 g for 2 min, washed in cold 0.6 M mannitol solution, centrifuged, and resuspended at 2×10^6/mL in cold 0.6 M mannitol. Electroporation conditions were 400 V/cm, 200 μF, 10 msec, and two pulses with a Biorad GenePulser apparatus. Each sample contained 5×10^4 protoplasts and about 50 μg DNA in 0.3 mL of 0.6 M mannitol and 20 mM KCl.
as §1
The values in FIG. 2 are the average (±S.E.M.) of four replicate transformations.
To test the involvement of ABI3-Like B3 domain transcription factors in ABA signaling, ABA-inducible reporter gene transactivation by the B3 domain-containing RAV2 was assayed in maize mesophyll protoplasts transiently co-transformed with a full length cDNA under transcriptional control of the Ubiquitin promoter. Activation of Em-GUS reporter gene expression by RAV2, relative to non-ABA inducible Ubi-LUC reference reporter as internal control, and functional interactions of RAV2 with VP1, ABI5, and the ABI5-Like ABF3 were compared in protoplasts treated with or without 100 uM ABA (see FIG. 3).

Molecule | Synergy with exogenous ABA on Em-GUS expression ([1]; 100 μM ABA, 16 h) | Synergistic activity with VP1 relative to that of ABI5 with VP1 ([1]; co-expressed with VP1) | Transactivation of Em-GUS expression by overexpressed effector [1] | Synergy with co-expressed VP1 on Em-GUS expression ([1]; pairwise co-transformation with 35S-VP1) | Synergy with co-expressed ABI5 on Em-GUS expression ([1]; pairwise co-transformation with Ubi-ABI5) | Synergy with co-transformed VP1 on Em-GUS expression [2] | Synergy with exogenous ABA on Em-GUS expression [2] | Transactivation of Em-GUS expression by overexpressed effector [2]
B1 | strong; also recorded: acted in synergy with ABA; also recorded: interacts synergistically | about twice the synergistic activity seen between ABI5 and VP1 | sufficient for transactivation of the Em promoter; also recorded: transactivated the Em promoter; also recorded: sufficient to transactivate ABA-inducible Em-GUS expression | synergized with each other and with ABA; also recorded: interacts synergistically | did not result in synergy | can synergize with co-transformed VP1 | synergize with exogenous ABA | sufficient for transactivation of the Em promoter; also recorded: sufficient for specific Em-GUS transactivation; also recorded: sufficient to transactivate Em-GUS expression
B2 |  |  | sufficient for transactivation of the Em promoter; also recorded: sufficient to transactivate ABA-inducible Em-GUS expression |  |  | no functional interactions with VP1 and not | synergize with exogenous ABA | sufficient for transactivation of the Em promoter; also recorded: sufficient to transactivate Em-GUS expression
B3 |  |  | no effect on Em-GUS expression |  |  | not | lower levels of ABA synergy compared to ABF3 and ABF4 | 
